Publication PMC2728405

Biological target: microtubules preformed from purified tubulin (taxol-stabilized) (UniProt Q6B856)
Assay: co-sedimentation

**Q.** purified recombinant Flag-tagged Dp260 was tested. Which stoichiometry N (α-β tubulin heterodimers per Dp260) did it give?
**A.** 1.4
